# Reference: US20240043489A1, “Cytokine Prodrugs Comprising a Cleavable Linker” (Trutino Biosciences Inc., priority 2020, published 2024)
# Numbering of substitutions follows the chain as printed. In names and notes the source's numbering stands. Several values for one entry are separate records, joined by “and”; a condition that tells them apart may be missing. Equal values may be shown once. Entries after “also recorded” stand apart in the source; their conditions may differ. Read-outs that look alike come from different tables or passages of the source.
# B1: Construct CC: SEQ ID NO 813: m IL2-2x(GHHPH)-MMPcs1-2x(G4S)-mIL2Ra(1-215)-mu IgG1 Fc (protein)
# chain: APTSSSTSSSTAEAQQQQQQQQQQQQHLEQLLMDLQELLSRMENYRNLKLPRMLTFKFYLPKQATELKDLQCLEDELGPLRHVLDLTQSKSFQLEDAENFISNIRVTVVKLKGSDNTFECQFDDESATVVDFLRRWIAFCQSIISTSPQGHHPHGHHPHGPLGVRGGGGGSGGGGSELCLYDPPEVPNATFKALSYKNGTILNCECKRGFRRLKELVYMRCLGNSWSSNCQCTSNSHDKSRKQVTAQLEHQKEQQTTTDMQKPTQSMHQENLTGHCREPPPWKHEDSKRIYHFVEGQSVHYECIPGYKALQRGPAISICKMKCGKTGWTQPQLTCVDEREHHRFLASEESQGSRNSSPESETSCPITTTDFPQPTETTAMTETFVLTMEYKGCKPCICTVPEVSSVFIFPPKPKDVLTITLTPKVTCVVVDISKDDPEVQFSWFVDDVEVHTAQTQPREEQFNSTFRSVSELPIMHQDWLNGKEFKCRVNSAAFPAPIEKTISKTKGRPKAPQVYTIPPPKEQMAKDKVSLTCMITDFFPEDITVEWQWNGQPAENYKNTQPIMDTDGSYFVYSKLNVQKSNWEAGNTFTCSVLHEGLHNHHTEKSLSHSPGK
# B2: Construct II: SEQ ID NO 819: m IL2-LHERHLNNN-MMPcs1-2x(G4S)-mIL2Ra(1-215)-mu IgG1 Fc (protein)
# chain: B1 chain with G150S, H151L, P153E, H154R, G155H, H156L, H157N, P158N, H159N
# B3: Construct GG: SEQ ID NO 817: m IL2-SGG-KLWVLPK-MMPcs1-2x(G4S)-mIL2Ra(1-215)-mu IgG1 Fc (protein)
# chain: B1 chain with G150S, H151G, H152G, P153K, H154L, G155W, H156V, H157L, H159K
# Legend:
# fibronectin = fibronectin (Homo sapiens, UniProt P02751); details: Note 1, cited from earlier work
# Chain of fibronectin (P02751 32-2477, species assumed): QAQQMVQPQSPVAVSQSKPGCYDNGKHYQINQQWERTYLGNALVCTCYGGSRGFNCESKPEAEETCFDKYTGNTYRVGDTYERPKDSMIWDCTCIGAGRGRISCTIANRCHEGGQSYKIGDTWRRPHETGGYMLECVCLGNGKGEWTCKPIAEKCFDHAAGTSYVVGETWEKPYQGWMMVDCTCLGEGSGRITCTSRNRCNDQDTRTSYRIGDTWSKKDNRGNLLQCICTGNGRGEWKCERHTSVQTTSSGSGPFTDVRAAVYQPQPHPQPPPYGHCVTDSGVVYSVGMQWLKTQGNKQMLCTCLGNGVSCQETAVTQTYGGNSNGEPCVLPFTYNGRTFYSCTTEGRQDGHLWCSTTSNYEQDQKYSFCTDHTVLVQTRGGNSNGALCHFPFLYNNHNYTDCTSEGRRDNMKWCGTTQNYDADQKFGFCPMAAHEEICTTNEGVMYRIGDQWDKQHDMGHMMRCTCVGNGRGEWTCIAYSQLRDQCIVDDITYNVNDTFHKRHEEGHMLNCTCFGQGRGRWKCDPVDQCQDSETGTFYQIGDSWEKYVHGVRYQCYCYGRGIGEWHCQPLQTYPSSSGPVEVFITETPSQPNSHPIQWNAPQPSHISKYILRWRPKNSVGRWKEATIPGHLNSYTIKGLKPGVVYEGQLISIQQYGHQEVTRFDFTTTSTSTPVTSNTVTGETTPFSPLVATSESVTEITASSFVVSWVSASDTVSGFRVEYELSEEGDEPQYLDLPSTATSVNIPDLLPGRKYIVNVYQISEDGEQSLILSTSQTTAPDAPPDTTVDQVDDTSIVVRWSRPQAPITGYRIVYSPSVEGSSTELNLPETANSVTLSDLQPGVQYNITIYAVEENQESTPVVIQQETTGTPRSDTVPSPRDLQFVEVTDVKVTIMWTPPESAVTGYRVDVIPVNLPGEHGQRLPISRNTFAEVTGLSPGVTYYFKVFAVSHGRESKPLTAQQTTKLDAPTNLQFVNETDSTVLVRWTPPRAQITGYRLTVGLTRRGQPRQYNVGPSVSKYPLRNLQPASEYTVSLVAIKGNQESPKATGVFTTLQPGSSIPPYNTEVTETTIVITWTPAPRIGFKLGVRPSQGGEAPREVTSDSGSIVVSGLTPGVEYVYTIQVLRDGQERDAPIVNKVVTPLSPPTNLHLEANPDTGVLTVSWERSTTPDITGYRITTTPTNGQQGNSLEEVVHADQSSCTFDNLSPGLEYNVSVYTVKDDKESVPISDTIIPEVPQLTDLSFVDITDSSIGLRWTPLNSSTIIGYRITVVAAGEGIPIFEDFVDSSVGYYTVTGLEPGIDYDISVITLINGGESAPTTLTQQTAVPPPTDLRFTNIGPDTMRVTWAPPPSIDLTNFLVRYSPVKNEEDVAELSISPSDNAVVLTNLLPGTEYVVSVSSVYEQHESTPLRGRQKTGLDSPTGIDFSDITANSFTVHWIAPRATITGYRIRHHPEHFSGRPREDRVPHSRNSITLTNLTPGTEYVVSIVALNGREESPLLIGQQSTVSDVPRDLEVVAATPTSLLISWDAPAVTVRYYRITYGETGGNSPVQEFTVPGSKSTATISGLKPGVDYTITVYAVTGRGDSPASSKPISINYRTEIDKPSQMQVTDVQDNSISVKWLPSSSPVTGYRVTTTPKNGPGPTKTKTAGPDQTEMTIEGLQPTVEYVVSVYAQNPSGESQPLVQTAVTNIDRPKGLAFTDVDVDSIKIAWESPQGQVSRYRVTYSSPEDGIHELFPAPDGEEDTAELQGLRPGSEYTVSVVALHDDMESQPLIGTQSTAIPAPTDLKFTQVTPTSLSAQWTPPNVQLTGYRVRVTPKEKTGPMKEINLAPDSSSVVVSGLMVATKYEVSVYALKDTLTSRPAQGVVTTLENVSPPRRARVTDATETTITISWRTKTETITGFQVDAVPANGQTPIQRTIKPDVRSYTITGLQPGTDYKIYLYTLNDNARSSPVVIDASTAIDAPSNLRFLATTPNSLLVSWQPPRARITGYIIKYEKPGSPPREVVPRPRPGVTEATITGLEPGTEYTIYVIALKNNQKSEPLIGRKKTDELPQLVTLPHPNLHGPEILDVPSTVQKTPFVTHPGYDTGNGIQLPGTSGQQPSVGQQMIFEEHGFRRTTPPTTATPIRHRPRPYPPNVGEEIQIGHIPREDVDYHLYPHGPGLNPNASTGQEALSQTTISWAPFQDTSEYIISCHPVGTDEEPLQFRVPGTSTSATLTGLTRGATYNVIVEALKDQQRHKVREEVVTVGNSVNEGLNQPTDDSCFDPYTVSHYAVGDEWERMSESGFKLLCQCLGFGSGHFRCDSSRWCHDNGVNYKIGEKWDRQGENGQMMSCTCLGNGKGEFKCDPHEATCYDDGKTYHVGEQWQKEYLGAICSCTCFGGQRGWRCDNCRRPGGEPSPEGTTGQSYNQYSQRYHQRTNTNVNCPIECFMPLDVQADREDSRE
# heparin = assay: IL-2 fusion protein plate binding assay to Heparin-BSA conjugate
# Protocol: 96-well plates were coated with 25 ug/mL of Heparin-BSA conjugate (provided by Dr. Mueller, Boerhinger Ingelheim) or control BSA for 18-22 h at room temperature on shaker (350 rpm). After washing, wells are blocked with PBS-0.05% Tween 20/1% BSA for 90 min, then fusion proteins are titrated in 1% BSA/PBS-0.05% Tween 20 pH 7.5 and/or pH 6 and added for 2 hr at room temperature with shaking. After washing, an anti-mouse IL-2 biotin-labelled detection antibody (JES6-5H4, ThermoFisher) is added and binding is detected using Ultra Strepavidin HIRP (ThermoFisher). The plate was developed by adding the chromogenic tetramethylbenzidine substrate (Ultra TMB, ThermoFisher). The reaction is stopped by addition of 0.5M H2SO4 and the absorbance is read at 450-650 nm.
# [1] = Drug and IL-2 levels in B16F10 tumor lysates by ELISA; format: in vivo, mice; details: for IL-2 levels in treated tumors compared to Construct B treated tumors: free IL-2 calculated by subtraction, 24 h after last dose
# Protocol: (§1) We developed an ELISA assay to detect and quantify fusion proteins comprising IL-2 and IL-2Rα moieties. Wells of a 96-well plate are coated overnight with 100 uL of a rat anti-mouse IL-2 monoclonal antibody (JES6-1A12; ThermoFisher) at […] in PBS. After washing, wells are blocked with TBS/0.05% Tween 20/1% BSA, then fusion proteins and/or unknown biological samples are added for 1 hr at room temperature. After washing, an anti-mouse IL-2Rα biotin-labelled detection antibody (BAF2438, R&D systems) is added and binding is detected using Ultra Strepavidin HRP (ThermoFisher). The ELISA plate was developed by adding the chromogenic tetramethylbenzidine substrate (Ultra TMB, ThermoFisher). The reaction is stopped by addition of 0.5M H2SO4 and the absorbance is read at 450-650 nm.
# We developed a second ELISA assay to detect and quantify mouse IL-2 and/or fusion proteins comprising an IL-2 moiety. Wells of a 96-well plate are coated overnight with 100 uL of a rat anti-mouse IL-2 monoclonal antibody (JES6-1A12; ThermoFisher) at […] in PBS. After washing, wells are blocked with TBS/0.05% Tween 20/1% BSA, then fusion proteins and/or unknown biological samples are added for 1 hr at room temperature. After washing, an anti-mouse IL-2 biotin-labelled detection antibody (JES6-5H4, ThermoFisher) is added and binding is detected using Ultra Strepavidin HRP (ThermoFisher). The ELISA plate was developed by adding the chromogenic tetramethylbenzidine substrate (Ultra TMB, ThermoFisher). The reaction is stopped by addition of 0.5M H2SO4 and the absorbance is read at 450-650 nm. This assay is able to simultaneously detect both free mouse IL-2 as well as mouse IL-2 in the context of pro-drug fusion proteins.
# We quantified levels of full-length IL2-IL2Ra fusion proteins and IL-2 in tumor samples collected during pre-clinical efficacy studies comparing Construct B and retention linker IL-2 fusion drugs (see example 17).
# Tumors (n=3 per group) were collected 24 h after the last dose injection, flash frozen and stored at −80C until further processing. Tumor lysates were generated using tissue extraction reagent (ThermoFisher) supplemented with protease and phosphatase inhibitors and standard techniques and protein concentrations were determined using the BCA assay (Pierce).
# Lysates were tested with in-house ELISAs to measure full-length IL-2 fusion proteins (IL-2 capture/IL-2Rα detection) and IL-2 fusion proteins+free IL-2 (IL-2 capture/IL-2 detection). Free IL-2 levels in tumor were calculated by subtracting drug levels from the drug+IL-2 data set. Results were normalized to 1 mg of tumor lysate and mean values are shown in FIG. 15C-H. Levels of Construct CC (20 mg/kg dose) in tumor are roughly 3-fold higher compared to Construct B levels, despite Construct B being dosed at 40 mg/kg (FIG. C). […] Likewise, IL-2 levels in Construct CC, Construct GG and Construct II treated tumors are elevated compared to Construct B treated tumors (FIG. 15E/H). This implies that next generation retention linker technology is able to retain in TME both full-length drug and released IL-2 post-cleavage.
# [2] = Full-length drug levels in serum by ELISA; format: in vivo, mice; details: 24 hrs after dosing; for drug levels in serum relative to Construct B: 10 mg/kg cohort
# Protocol: as §1
# Additional serum samples collected at Day 17 (Construct B 20 mg/kg) and Day 21 (Construct Y 20 mg/kg), 4 days and 8 days respectively after the last IV injection, were assayed for full-length IL-2 fusion drug.
# HEK-Blue™ IL-2 cells = assay: HEK-Blue IL2 reporter assay (SEAP, OD630); format: cell-based; details: Table 5C
# Protocol: Recombinant MMP9 and/or MMP2 (R&D Systems) was first activated with p-aminophenylmercuric acetate and this activated protease or equivalent amount of activating solution without the protease was used to digest or mock digest the fusion protein for 1 hr, 2 hr, 4 hr and overnight (18-22 hr) at 37 C. Cleavage assays are set up in TCNB buffer: 50 mM Tris, 10 mM CaCl2), 150 mM NaCl, 0.05% Brij-35 (w/v), pH 7.5. Digested protein was aliquoted and stored at −80° C. prior to testing. Aliquots of digests were subsequently analyzed by SDS-PAGE followed by Western blotting to evaluate the extent of cleavage. Digests were also assessed in functional assays such as CTLL-2 proliferation and HEK-Blue Interleukin reporter assays. As shown in FIGS. 2A-E, essentially complete cleavage by MMP9 protease of the fusion proteins with functional site is seen after overnight incubation. In contrast, proteins containing a scrambled MMP cleavage site are not cut (FIG. 2E). HEK-Blue™ IL-2 cells are specifically designed to monitor the activation of the JAK-STAT pathway induced by IL-2. Indeed, stimulation with human or murine IL-2 triggers the JAK/STAT5 pathway and induces secreted embryonic alkaline phosphatase (SEAP) production. SEAP can be readily monitored when using QUANTI-Blue™, a SEAP detection medium. These cells respond to human and murine IL-2. For the HEK Blue assay, untreated and digested samples are titrated and added to 50 000 HEK Blue cells per well in 200 ul medium in a 96-well plate and incubated at 37C in 5% CO2 for 20-24 hr. The following day, levels of SEAP are measured by adding 20 uL of cell supernatant to QuantiBlue reagent, followed by 1-3 h incubation at 37C and reading absorbance at 630 nm. FIGS. 3C-J, 3Q-Y and Table 5B-5C show results obtained from IL2 fusion proteins tested in HEK Blue IL2 assay.
# collagen = assay: IL-2 fusion protein collagen-agarose pulldown (immunoblot quantitation); format: binding; details: for Bound: blot quantitation, collagen-agarose bound fraction; for Normalized: bound fraction relative to Construct B (fold); for Bound (% input): fraction bound to collagen-agarose; for binding to collagen-agarose beads vs control agarose beads: pulldown 18-22 h at 4C
# Protocol: To test binding to collagen, a pulldown assay using agarose cross-linked to collagen (Sigma) was performed. IL-2 fusion proteins were incubated with collagen-agarose or control agarose beads for 18-22 h at 4C with gentle rotation in 1% BSA/PBS-0.05% Tween 20. After washing, proteins bound to the beads were eluted by resuspending beads in SDS sample buffer (Life Technologies). Bound proteins were then separated by SDS-PAGE on 4-12% BisTris gradient gel followed by immunoblotting with goat anti-mouse IL-2 polyclonal antibody (AF-402-NA; R&D systems). Donkey Anti-goat RP-conjugated antibody was used for detection (Jackson Immuno Research, West Grove, PA) and the blot was developed using the SuperSignal West Femto Maximum sensitivity detection reagent (ThermoFisher) following the manufacturer's recommendations.
# B16F10 melanoma = assay: In vivo efficacy of retention linker IL-2 drugs in B16F10 syngeneic model (Example 17); set-up: species or system mice; details: for TGI (%) D 15: 10 mg/kg IV Q3D, 5 doses; for TGI (%) D 20: 10 mg/kg, 7 days following the fifth dose
# Protocol: (§2) In a first efficacy study, C57BL/6 mice were subcutaneously inoculated with B16F10 melanoma cells and when the average tumor volume reached on average 70-90 mm^3, animals were randomized into 5 groups based on tumor volumes (n=6 mice per treatment group). Mice were dosed intravenously every 3 days (Q3D) for a total of 5 doses according to following design:
# as §2, with “second” for “first”, “study in the same model,” for “study,”
# On Day 20, mice received an additional dose of drug, animals were sacrificed 24 hrs later and tissues and blood (processed to serum) were collected and stored at −80C for further testing. […] This is most likely due to the higher levels of both circulating drugs in serum and resident drug in TME, which can exert prolonged anti-tumor activity even after an extended dosing holiday.
# [3] = pH-sensitive sequences derived from thrombospondin
# [4] = cleaved with MMP9, read-out: +MMP EC50
molecule,measurement,setting,value
656 (GGWSHWSPWSS) [Construct 656],affinity (Binds to Fibronectin),fibronectin; [3],derived from thrombospondin (medium affinity)
654 (KRFKQDGGWSHWSPWSS) [Construct 654],affinity (Binds to Fibronectin),fibronectin; [3],derived from thrombospondin (low affinity)
655 (KRFKQDGGWSHWSP) [Construct 655],affinity (Binds to Fibronectin),fibronectin; [3],derived from thrombospondin (medium affinity)
680 (QFGGHNSVDFEEDT) [Construct 680],affinity (Binds to Fibronectin),fibronectin; FAB D3 fragments,non-binding control
B1,EC50,heparin; acidic pH,10 nM
same,heparin binding (qualitative),"heparin; pH 6 vs pH 7.5, plate assay",bind heparin in dose-dependent manner and with higher affinity than Construct B; also recorded: preferentially binds heparin at acidic pH
same,drug levels in tumor relative to Construct B (40 mg/kg),"[1]; Construct CC 20 mg/kg, tumors 24 h after last dose",roughly 3 fold
same,IL-2 levels in treated tumors compared to Construct B treated tumors,[1],elevated
same,circulating drug levels compared with Construct B (40 mg/kg),[2]; Construct CC 20 mg/kg,roughly similar
same,EC50,HEK-Blue™ IL-2 cells; [4],0.013 nM
same,EC50,"HEK-Blue™ IL-2 cells; uncleaved, read-out: −MMP EC50",0.66 nM
B2,IL-2 levels in treated tumors compared to Construct B treated tumors,[1],elevated
same,drug levels in serum relative to Construct B,[2],~3 fold
same,Bound,collagen,2277
same,Normalized,collagen,1.4
same,Bound (% input),collagen,0.4%
same,binding to collagen-agarose beads vs control agarose beads,collagen,specifically bound by collagen-agarose beads
same,EC50,HEK-Blue™ IL-2 cells; [4],0.009 nM
same,EC50,"HEK-Blue™ IL-2 cells; uncleaved, read-out: −MMP EC50",0.489 nM
same,TGI (%) D 15,B16F10 melanoma,57% and 57.68%
same,TGI (%) D 20,B16F10 melanoma,68.52%
B3,"drug level in tumor, comparison in 10 mg/kg dosing cohort","[1]; 10 mg/kg, tumors 24 h after last dose",highest levels
same,IL-2 levels in treated tumors compared to Construct B treated tumors,[1],elevated
same,drug levels in serum relative to Construct B,[2],roughly 5 fold
same,Bound,collagen,5191
same,Normalized,collagen,2.5
same,Bound (% input),collagen,0.7%
same,binding to collagen-agarose beads vs control agarose beads,collagen,specifically bound by collagen-agarose beads
same,EC50,HEK-Blue™ IL-2 cells; [4],0.0072 nM
same,EC50,"HEK-Blue™ IL-2 cells; uncleaved, read-out: −MMP EC50",0.14 nM
same,TGI (%) D 15,B16F10 melanoma,57% and 57.18%
same,TGI (%) D 20,B16F10 melanoma,64.70%
